Test results reported in the RNAGym collection of RNA variant scans (doi:10.7554/elife.80360).

B1: CPEB3 Ribozyme (parent)
chain: GGGGGCCACAGCAGAAGCGUUCACGUCGCGGCCCCUGUCAGAUUCUGGUGAAUCUGCGAAUUCUGCUGU

Variants of: B1
Experiment: self-cleavage, relative activity (ratio to wild type); higher = more cleavage; co-transcriptional

| Variant | self-cleavage |
| --- | --- |
| G28C C66G | 0.141 |
| G28U C33A | 0.21 |
| G28U C33G | 0.196 |
| G28U U44G | 0.175 |
| G28U A60G | 0.214 |
| G28U A60C | 0.226 |
| G28C C32G | 0.168 |
| G28C C32U | 0.23 |
| G28C C32A | 0.181 |
| C29G C45A | 0.402 |
| C29G C45G | 0.407 |
| C29A C57A | 0.279 |
| C29A C57G | 0.225 |
| C29A A40C | 0.214 |
| C29A A40U | 0.296 |
| C29A A40G | 0.607 |
| C29G G58U | 0.558 |
| C29G G58C | 0.416 |
| G28C U53C | 0.145 |
| G28C U53G | 0.196 |
| G28C U53A | 0.156 |
| G28C U64A | 0.222 |
| G28C U64G | 0.116 |
| G28C G31U | 0.21 |

| Variant | self-cleavage |
| --- | --- |
| G28C G31A | 0.139 |
| G28C G31C | 0.172 |
| C29A U64C | 0.25 |
| C29A U64G | 0.292 |
| C29A U64A | 0.223 |
| C29G A52G | 0.53 |
| C29G A52U | 0.504 |
| C29G C34G | 0.294 |
| G28C G65A | 0.161 |
| G28C G65C | 0.19 |
| C29A G30U | 0.216 |
| C29A G30A | 0.264 |
| C29A G30C | 0.205 |
| G28C U61C | 0.134 |
| G28C U67C | 0.168 |
| G28C U67G | 0.295 |
| G28U C39A | 0.103 |
| G28U C39G | 0.206 |
| G28C U62A | 0.194 |
| G28C U62C | 0.136 |
| G28U A40G | 0.232 |
| G28U A40C | 0.225 |
| C29A C33A | 0.373 |
| G28U U49A | 0.166 |

| Variant | self-cleavage |
| --- | --- |
| G28U U49C | 0.178 |
| G28U U49G | 0.11 |
| G28C C29U | 0.137 |
| G28C C29A | 0.144 |
| G28C C29G | 0.153 |
| G28U U36C | 0.135 |
| G28C C57G | 0.191 |
| G28C C57U | 0.23 |
| G28C C57A | 0.207 |
| G28U G65C | 0.132 |
| G28C A42U | 0.25 |
| C29A G47U | 0.817 |
| C29A G47C | 0.716 |
| G28A U62C | 0.218 |
| G28A U62A | 0.203 |
| C29G G30C | 0.271 |
| C29G G30A | 0.173 |
| G28U U62A | 0.216 |
| G28U U62G | 0.189 |
| C29A | 0.777 |
| C29G | 0.618 |
| C29A U36C | 0.428 |
| C29A U36A | 0.215 |
| G28C G68U | 0.221 |

| Variant | self-cleavage |
| --- | --- |
| G28C G68A | 0.164 |
| C29G G50U | 0.535 |
| C29G G50A | 0.609 |
| C29A C32U | 0.698 |
| C29A C32G | 0.155 |
| G28U U38A | 0.164 |
| G28U U38G | 0.161 |
| G28U U38C | 0.136 |
| G28A U49G | 0.22 |
| G28A U49C | 0.238 |
| C29G G56C | 0.225 |
| C29G G56A | 0.299 |
| C29G G56U | 0.292 |
| G28C A40C | 0.218 |
| G28C A40U | 0.215 |
| G28C A40G | 0.211 |
| C29A G31C | 0.175 |
| C29A G31A | 0.296 |
| C29A G31U | 0.221 |
| C29G A42G | 0.445 |
| C29G A42U | 0.385 |
| G28U C54G | 0.158 |
| G28U C54A | 0.144 |
| G28U C32A | 0.236 |

| Variant | self-cleavage |
| --- | --- |
| C29A U67A | 0.668 |
| C29A U67C | 0.736 |
| C29A A59G | 0.715 |
| C29A C39U | 0.372 |
| C29A C39G | 0.431 |
| G28C C45G | 0.208 |
| C29A C45U | 0.731 |
| G28U U43C | 0.176 |
| G28U U67G | 0.203 |
| G28U U67C | 0.224 |
| G28U U67A | 0.168 |
| G28A U38G | 0.147 |
| G28A U38C | 0.196 |
| G28C A52U | 0.197 |
| G28C C39G | 0.198 |
| G28U U53G | 0.22 |
| G28U U53A | 0.188 |
| G28U C66U | 0.168 |
| G28U C66A | 0.153 |
| G28U C66G | 0.16 |
| G28A G56C | 0.235 |
| G28A G56A | 0.164 |
| G28A G56U | 0.167 |
| C29A G50U | 0.747 |

| Variant | self-cleavage |
| --- | --- |
| C29A G50A | 0.735 |
| C29G G48A | 0.667 |
| C29G G48C | 0.698 |
| C29G G48U | 0.602 |
| G28A G68U | 0.195 |
| G28A G68C | 0.268 |
| G28C G47C | 0.258 |
| G28C G47U | 0.167 |
| G28C G47A | 0.187 |
| C29A G41C | 0.195 |
| G28C C34G | 0.245 |
| G28C C34U | 0.136 |
| G28U G50A | 0.237 |
| G28U G50C | 0.183 |
| G28U G37C | 0.172 |
| G28U G37U | 0.166 |
| G28A U43G | 0.0959 |
| G28A U43A | 0.156 |
| G28A U43C | 0.219 |
| G28U G30A | 0.14 |
| G28U G30U | 0.183 |
| G28U G30C | 0.166 |
| C29G G41A | 0.236 |
| G28U G58A | 0.185 |

| Variant | self-cleavage |
| --- | --- |
| G28U G58C | 0.177 |
| C29A A60U | 0.257 |
| G28U G31C | 0.141 |
| G28U G31U | 0.171 |
| C29A U53G | 0.454 |
| C29A U53A | 0.46 |
| C29A U53C | 0.356 |
| C29A A42U | 0.517 |
| C29A A42G | 0.533 |
| C29A A42C | 0.409 |
| G28C G30C | 0.143 |
| G28C G30A | 0.22 |
| C29G A40C | 0.157 |
| C29G A40U | 0.277 |
| C29G A40G | 0.457 |
| G28U U55C | 0.154 |
| G28U U55A | 0.203 |
| C29G C39A | 0.213 |
| G28U U64A | 0.157 |
| G28U U64G | 0.147 |
| C29A A52C | 0.64 |
| C29A A52U | 0.671 |
| C29A A52G | 0.77 |
